From patent US20210221891A1 (NANJING LEGEND BIOTECH, published 2021)
Where a chain is given by its changes, count along the chain named.

B1: AS06750 sdAb (VHH)
VHH: AVQLVESGGGLVQAGDSLRLSCTASGRTFLTYAVGWFRQAPGTEREFVAGIRWSGGYTDYADSVKGRFTISRDNAKNTVYLQMNSLKPEDTAVYYCAAHRTIATIPEKYEYEYWGQGTQVTVSS
B2: AS06617 sdAb (VHH)
VHH: DVQLVESGGGLVQAGDSLRLSCAASGRTFISYAVGWFRQAPGSEREFVAGIRWNGIHTDYADSVKGRFTISRDNAKNTVTLEMTSLKPEDTAVYYCAAHRTIATIPEKYEYEYWGQGTQVTVSS
B3: AS06618 sdAb (VHH)
VHH: B1 VHH with A1E, G10R, Q13R, T23A, T31S, D62E, S63A
B4: AS06682 sdAb (VHH)
VHH: B1 VHH with T31S, G56E, Y57H, D62A, R100T, E107K
B5: AS06775 sdAb (VHH)
VHH: B1 VHH with A1Q, T23A, Y32L, G56S, Y57G, R100T, Q116R
B6: AS12003 sdAb (VHH)
VHH: B1 VHH with A1E, T23A, T31S, Y57S, I105V, E107N, E112D, Y113T
B7: AS06778 sdAb (VHH)
VHH: QVQLVESGGGLVQAGGSLKLSCAASGRTFITYAMGWFRQAPGKERELVAAISWSGSSTYSADSVKGRFTISRDNAKNTVYLQMNSLKPEDTAVYYCAAEVSARTGEHLPKLMGDYWGQGTQVTVSS
B8: AS06628 sdAb (VHH)
VHH: QVQLVESGGGLVQAGGSLRLSCAASGRTFITYAIGWFRQAPGKEREFVTAINWSGSMTSYADSVKGRFTISRDNNKNMVYLQMNSLKPEDTAVYYCAAHRGAIAPMTQSVYDYWGQGTQVTVSS
B9: AS06703 sdAb (VHH)
VHH: B8 VHH with Q1E, Q13R, M78T, V93L, R100L, T107S
B10: AS06730 sdAb (VHH)
VHH: B8 VHH with T49S, N75A, M78T, S85G, M106I, T107A, D112T, Y113N
B11: AS06791 sdAb (VHH)
VHH: B8 VHH with N75A, M78T, M83I, S85G, P88S
B12: AS11947 sdAb (VHH)
VHH: DVQLVESGGGLVQAGDSLRLTCSASGRTFISYAVGWFRQAPGTEREFVAGIRWNGISTDYTDSVKGRFTISRDNAKNTVYLQMNSLKPEDTAIYYCAAHRTIATIPNKYEYDHWGQGTQVTVSS
B13: AS11948 sdAb (VHH)
VHH: EVQLVESGGGLVQAGDSLRLSCVASGRTFVTYGMGWFRQAPGKEREFVAAINWSGSMTSYGDSVKGRFAISRDNAKNTVYLQMNSLKPEDTAVYYCAAALGAVVYTTREPYTYWGRGTQVTVSS
B14: AS06686 sdAb (VHH)
VHH: AVQLVESGGGLVQAGDSLRLACAASGRTFLTYALGWFRQAPGKEREFVAGVSWSGSSTKYADSVKGRFTISRDNAKNTVYMQMNSLKPEDTAVYYCAAQISAIVPISAHEYQYWGQGTQVTVSS

Each binder was assayed against human PD-L1 expressed on CHO-K1 cells (human, UniProt Q9NZQ7 19-290) (assay: cell-based or functional assay).
human PD-L1 expressed on CHO-K1 cells, sequence (Q9NZQ7 19-290): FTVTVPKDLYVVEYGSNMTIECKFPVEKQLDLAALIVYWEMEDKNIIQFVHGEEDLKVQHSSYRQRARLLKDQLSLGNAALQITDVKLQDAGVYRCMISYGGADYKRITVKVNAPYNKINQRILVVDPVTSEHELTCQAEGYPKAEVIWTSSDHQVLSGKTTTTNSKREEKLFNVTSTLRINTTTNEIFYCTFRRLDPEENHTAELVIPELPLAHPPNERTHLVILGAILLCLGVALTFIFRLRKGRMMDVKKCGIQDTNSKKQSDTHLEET

Row | Binder | EC50 of PD-L1- based blockade assay for sdAbs [nM]
1 | B1 | 33.6
2 | B2 | 63.8
3 | B3 | 44.5
4 | B4 | 42
5 | B5 | 75.5
6 | B6 | 96.2
7 | B7 | 20.1
8 | B8 | 24.2
9 | B9 | 15
10 | B10 | 17.2
11 | B11 | 36.5
12 | B12 | 77.2
13 | B13 | 25.2
14 | B14 | 352
